The assay concerns the target ProLabel-LEDGF fusion protein (UniProt O75475). The assay is described as follows: chemiluminescent co-IP assay. To be noted: 293T cells, 48 h after transfection; parent: est. 4700; read off a plot.
Sequence of UniProt O75475 (O75475 whole entry, the tested form may be a part): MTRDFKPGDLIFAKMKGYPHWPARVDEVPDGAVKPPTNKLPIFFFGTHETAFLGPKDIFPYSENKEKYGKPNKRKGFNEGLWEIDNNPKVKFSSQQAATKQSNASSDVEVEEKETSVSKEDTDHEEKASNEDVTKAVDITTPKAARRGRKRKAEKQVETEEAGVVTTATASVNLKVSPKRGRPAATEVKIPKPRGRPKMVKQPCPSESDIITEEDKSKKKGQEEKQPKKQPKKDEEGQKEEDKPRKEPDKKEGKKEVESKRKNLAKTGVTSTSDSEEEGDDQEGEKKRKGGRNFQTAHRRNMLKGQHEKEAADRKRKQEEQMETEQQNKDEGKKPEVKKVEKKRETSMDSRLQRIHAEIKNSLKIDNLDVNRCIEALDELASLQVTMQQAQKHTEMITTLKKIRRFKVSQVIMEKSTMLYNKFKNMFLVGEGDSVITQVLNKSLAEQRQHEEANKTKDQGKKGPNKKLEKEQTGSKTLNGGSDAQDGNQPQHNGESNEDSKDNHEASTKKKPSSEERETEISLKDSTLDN

Turning to AcGFP1-IN wild type E170A; H171A, the response worked out at 50 RLU.
AcGFP1-IN wild type E170A; K173A: the response is 1300 RLU.
Then AcGFP1-IN wild type H171A; K173A, with 250 RLU; and AcGFP1-IN wild type H171A; L172A, with 130 RLU.

For the origin of these results see PMC2859858.
